# EP4707292A2 (The University of North Carolina at Chapel Hill, dated 2026)
# B1: Plasminogen (other)
# chain: EPLDDYVNTQGASLFSVTKKQLGAGSIEECAAKCEEDEEFTCRAFQYHSKEQQCVIMAENRKSSIIIRMRDVVLFEKKVYLSECKTGNGKNYRGTMSKTKNGITCQKWSSTSPHRPRFSPATHPSEGLEENYCRNPDNDPQGPWCYTTDPEKRYDYCDILECEEECMHCSGENYDGKISKTMSGLECQAWDSQSPHAHGYIPSKFPNKNLKKNYCRNPDRELRPWCFTTDPNKRWELCDIPRCTTPPPSSGPTYQCLKGTGENYRGNVAVTVSGHTCQHWSAQTPHTHNRTPENFPCKNLDENYCRNPDGKRAPWCHTTNSQVRWEYCKIPSCDSSPVSTEQLAPTAPPELTPVVQDCYHGDGQSYRGTSSTTTTGKKCQSWSSMTPHRHQKTPENYPNAGLTMNYCRNPDADKGPWCFTTDPSVRWEYCNLKKCSGTEASVVAPPPVVLLPDVETPSEEDCMFGNGKGYRGKRATTVTGTPCQDWAAQEPHRHSIFTPETNPRAGLEKNYCRNPDGDVGGPWCYTTNPRKLYDYCDVPQCAAPSFDCGKPQVEPKKCPGRVVGGCVAHPHSWPWQVSLRTRFGMHFCGGTLISPEWVLTAAHCLEKSPRPSSYKVILGAHQEVNLEPHVQEIEVSRLFLEPTRKDIALLKLSSPAVITDKVIPACLPSPNYVVADRTECFITGWGETQGTFGAGLLKEAQLPVIENKVCNRYEFLNGRVQSTELCAGHLAGGTDSCQGDSGGPLVCFEKDKYILQGVTSWGLGCARPNKPGVYVRVSRFVTWIEGVMRNN
# notes: also called PLG; PMG
# B2: Fibrinogen beta chain (other)
# chain: GHRPLDKKREEAPSLRPAPPPISGGGYRARPAKAAATQKKVERKAPDAGGCLHADPDLGVLCPTGCQLQEALLQQERPIRNSVDELNNNVEAVSQTSSSSFQYMYLLKDLWQKRQKQVKDNENVVNEYSSELEKHQLYIDETVNSNIPTNLRVLRSILENLRSKIQKLESDVSAQMEYCRTPCTVSCNIPVVSGKECEEIIRKGGETSEMYLIQPDSSVKPYRVYCDMNTENGGWTVIQNRQDGSVDFGRKWDPYKQGFGNVATNTDGKNYCGLPGEYWLGNDKISQLTRMGPTELLIEMEDWKGDKVKAHYGGFTVQNEANKYQISVNKYRGTAGNALMDGASQLMGENRTMTIHNGMFFSTYDRDNDGWLTSDPRKQCSKEDGGGWWYNRCHAANPNGRYYWGGQYTWDMAKHGTDDGVVWMNWKGSWYSMRKMSMKIRPFFPQQ
# notes: also called FGB
# B3: Fibrinogen alpha chain (other)
# chain: GPRVVERHQSACKDSDWPFCSDEDWNYKCPSGCRMKGLIDEVNQDFTNRINKLKNSLFEYQKNNKDSHSLTTNIMEILRGDFSSANNRDNTYNRVSEDLRSRIEVLKRKVIEKVQHIQLLQKNVRAQLVDMKRLEVDIDIKIRSCRGSCSRALAREVDLKDYEDQQKQLEQVIAKDLLPSRDRQHLPLIKMKPVPDLVPGNFKSQLQKVPPEWKALTDMPQMRMELERPGGNEITRGGSTSYGTGSETESPRNPSSAGSWNSGSSGPGSTGNRNPGSSGTGGTATWKPGSSGPGSTGSWNSGSSGTGSTGNQNPGSPRPGSTGTWNPGSSERGSAGHWTSESSVSGSTGQWHSESGSFRPDSPGSGNARPNNPDWGTFEEVSGNVSPGTRREYHTEKLVTSKGDKELRTGKEKVTSGSTTTTRRSCSKTVTKTVIGPDGHKEVTKEVVTSEDGSDCPEAMDLGTLSGIGTLDGFRHRHPDEAAFFDTASTGKTFPGFFSPMLGEFVSETESRGSESGIFTNTKESSSHHPGIAEFPSRGKSSSYSKQFTSSTSYNRGDSTFESKSYKMADEAGSEADHEGTHSTKRGHAKSRPVRDCDDVLQTHPSGTQSGIFNIKLPGSSKIFSVYCDQETSLGGWLLIQQRMDGSLNFNRTWQDYKRGFGSLNDEGEGEFWLGNDYLHLLTQRGSVLRVELEDWAGNEAYAEYHFRVGSEAEGYALQVSSYEGTAGDALIEGSVEEGAEYTSHNNMQFSTFDRDADQWEENCAEVYGGGWWYNNCQAANLNGIYYPGGSYDPRNNSPYEIENGVVWVSFRGADYSLRAVRMKIRPLVTQ
# notes: from human serum, identified by MS; also called FGA
# B4: Fibrinogen gamma chain (other)
# chain: YVATRDNCCILDERFGSYCPTTCGIADFLSTYQTKVDKDLQSLEDILHQVENKTSEVKQLIKAIQLTYNPDESSKPNMIDAATLKSRKMLEEIMKYEASILTHDSSIRYLQEIYNSNNQKIVNLKEKVAQLEAQCQEPCKDTVQIHDITGKDCQDIANKGAKQSGLYFIKPLKANQQFLVYCEIDGSGNGWTVFQKRLDGSVDFKKNWIQYKEGFGHLSPTGTTEFWLGNEKIHLISTQSAIPYALRVELEDWNGRTSTADYAMFKVGPEADKYRLTYAYFAGGDAGDAFDGFDFGDDPSDKFFTSHNGMQFSTWDNDNDKFEGNCAEQDGSGWWMNKCHAGHLNGVYYQGGTYSKASTPNGYDNGIIWATWKTRWYSMKKTTMKIIPFNRLTIGEGQQHHLGGAKQVRPEHPAETEYDSLYPEDDL
# notes: also called FGG
# Target: T1, Adeno-associated virus 8 (AAV8) virion (adeno-associated virus 8)
# T1 construct: Intact virion with packaged vector genome; capsid of 60 subunits (VP1, VP2, VP3, overlapping products of one cap gene); also called AAV8/luc; AAV8 capsid
# Test: co-IP/LC-MS/MS, AAV8 + human serum vs PBS control
row,Binder,fold change [fold]
1,B1,1.48
2,B2,1.43
3,B3,1.75
4,B4,1.6

# Target: T2, Adeno-associated virus 9 (AAV9) virion (adeno-associated virus 9)
# T2 construct: Intact virion; capsid of VP1, VP2, VP3; also called AAV9/luc; AAV9 capsid
# Test: co-IP with ADK9/LC-MS/MS, AAV9 + human serum vs control
row,Binder,fold change [fold]
1,B1,1.48
2,B2,1.43
3,B3,1.75
4,B4,1.6

# Target: T2, Adeno-associated virus 9 (AAV9) virion
# Test: as above
# Remark: another data set of the same source
row,Binder,Fold increase [fold]
1,B1,3.23
2,B2,4.97
3,B3,4.95
4,B4,4.85
